Experiments:
[1] = target: T1, TNFR1 (as used in the surface plasmon resonance assays) (UniProt P19438 30-211, limits assumed); test: surface plasmon resonance (SensiQ Pioneer, FastStep kinetic assay)
T1 sequence (looked up): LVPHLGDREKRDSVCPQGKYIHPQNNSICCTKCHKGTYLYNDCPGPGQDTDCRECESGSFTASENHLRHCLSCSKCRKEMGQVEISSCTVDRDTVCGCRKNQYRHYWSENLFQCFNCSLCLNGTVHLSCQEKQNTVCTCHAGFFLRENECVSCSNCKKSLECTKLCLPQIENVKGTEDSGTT

[2] = target: T2, TNFR2 (as used in the surface plasmon resonance assays) (UniProt P20333 23-257, limits assumed); test: surface plasmon resonance, KD against that of TNFα/TNFR2
T2 sequence (looked up): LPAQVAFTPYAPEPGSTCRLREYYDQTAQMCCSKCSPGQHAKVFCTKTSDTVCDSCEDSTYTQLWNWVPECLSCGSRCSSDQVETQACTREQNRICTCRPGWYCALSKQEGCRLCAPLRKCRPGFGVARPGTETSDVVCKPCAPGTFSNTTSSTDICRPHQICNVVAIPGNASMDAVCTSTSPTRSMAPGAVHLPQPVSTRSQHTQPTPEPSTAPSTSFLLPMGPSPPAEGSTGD

[3] = target: T1, TNFR1 (as used in the surface plasmon …); test: surface plasmon resonance
[4] = target: T2, TNFR2 (as used in the surface plasmon …); test: surface plasmon resonance
[5] = target: T1, TNFR1 (as used in the surface plasmon …); test: surface plasmon resonance, KD against that of TNFα/TNFR1
[6] = target: T3, Atsttrin (yeast two-hybrid construct in pDBleu) (human, UniProt P04386 1-147 (Saccharomyces cerevisiae entry), limits assumed); test: yeast two-hybrid, β-galactosidase assay
T3 construct: domain: Gal4 DBD; also called ½A+P3+P4+½C+P5+½F; ½F-P3-P4-½A-P5-½C

B1: recombinant GEP (granulin/epithelin precursor) (ligand)
chain: TRCPDGQFCPVACCLDPGGASYSCCRPLLDKWPTTLSRHLGGPCQVDAHCSAGHSCIFTVSGTSSCCPFPEAVACGDGHHCCPRGFHCSADGRSCFQRSGNNSVGAIQCPDSQFECPDFSTCCVMVDGSWGCCPMPQASCCEDRVHCCPHGAFCDLVHTRCITPTGTHPLAKKLPAQRTNRAVALSSSVMCPDARSRCPDGSTCCELPSGKYGCCPMPNATCCSDHLHCCPQDTVCDLIQSKCLSKENATTDLLTKLPAHTVGDVKCDMEVSCPDGYTCCRLQSGAWGCCPFTQAVCCEDHIHCCPAGFTCDTQKGTCEQGPHQVPWMEKAPAHLSLPDPQALKRDVPCDNVSSCPSSDTCCQLTSGEWGCCPIPEAVCCSDHQHCCPQRYTCVAEGQCQRGSEIVAGLEKMPARRGSLSHPRDIGCDQHTSCPVGGTCCPSQGGSWACCQLPHAVCCEDRQHCCPAGYTCNVKARSCEKEVVSAQPATFLARSPHVGVKDVECGEGHFCHDNQTCCRDNRQGWACCPYAQGVCCADRRHCCPAGFRCARRGTKCLRREAPRWDAPLRDPALRQLL
notes: also called purified GEP; PGRN
For B1, the Kd [1] was 1.58 nM, the koff [1] was 0.000814 s⁻¹ and the kon [1] was 516000 M⁻¹ s⁻¹.

B2: Atsttrin (recombinant, released from GST-Atsttrin by factor Xa) (peptide)
chain: PQASCCEDRVHCCPHGAFCDLVHTRCITPTGTHPLAKKLPAQRTNRAVALSSSASSKENATTDLLTKLPAHTVGDVKCDMEVSCPDGYTCCRLQSGAWPWCEQGPHQVPWMEKAPAHLSLPDPQALKRDVPCDNVSSCPSSDTCCQLTSGEWGCCPIP
notes: Expressed in bacteria as GST fusion, cleaved with factor Xa; also called Antagonist of TNF/TNFR Signaling via Targeting TNF Receptors; purified Atsttrin
With B2 the “fold higher binding affinity than TNFα” value [2] was roughly 9 fold, the Kd [3] was 160 nM and the Kd [4] was 85.9 nM. For the same binder, the “fold lower affinity than TNFα” value [5] was roughly 18 fold.

B3: RANK (yeast two-hybrid plasmid of Example 9) (receptor, UniProt Q9Y6Q6 30-212, looked up)
chain: IAPPCTSEKHYEHLGRCCNKCEPGKYMSSKCTTTSDSVCLPCGPDEYLDSWNEEDKCLLHKVCDTGKALVAVVAGNSTTPRRCACTAGYHWSQDCECCRRNTECAPGLGAQHPLQLNKDTVCKPCLAGYFSDAFSSTDKCRPWTNCTFLGKRVEHHGTEKSDAVCSSSLPARKPPNEPHVYLP
B3: no binding [6].

B4: FAS (yeast two-hybrid plasmid of Example 9) (receptor, UniProt P25445 26-173, looked up)
chain: QVTDINSKGLELRKTVTTVETQNLEGLHHDGQFCHKPCPPGERKARDCTVNGDEPDCVPCQEGKEYTDKAHFSSKCRRCRLCDEGHGLEVEINCTRTQNTKCRCKPNFFCNSTVCEHCDPCTKCEHGIIKECTLTSNTKCKEEGSRSN
B4: no binding [6].
